The results in this text go back to the RNAGym collection of RNA variant scans (doi:10.7554/elife.80360).

B1: CPEB3 Ribozyme (parent)
chain: GGGGGCCACAGCAGAAGCGUUCACGUCGCGGCCCCUGUCAGAUUCUGGUGAAUCUGCGAAUUCUGCUGU

Variants of B1 are the subject of this series. The experiment in a line: self-cleavage, relative activity (ratio to wild type); higher = more cleavage; co-transcriptional.
For the variant GGGCGCCACAGCAGAAGCGUUCACUUCGCGGCCCCUGUCAGAUUCUGGUGAAUCUGCGAAUUCUGCUGU [G4C G25U], the self-cleavage turned out to be 0.0499. Then GGGCGCCACAGCAGAAGCGUUCACAUCGCGGCCCCUGUCAGAUUCUGGUGAAUCUGCGAAUUCUGCUGU [G4C G25A], with 0.0767; and GGGCGCCACAGCAGAAGCGUUCACCUCGCGGCCCCUGUCAGAUUCUGGUGAAUCUGCGAAUUCUGCUGU [G4C G25C], with 0.102. The value for GGGCGCCACAGCAGAAGCGUUCACGUCGCGGCCCCUGUCAGAUUCUGGUAAAUCUGCGAAUUCUGCUGU [G4C G50A] was 0.654; that for GGGCGCCACAGCAGAAGCGUUCACGUCGCGGCCCCUGUCAGAUUCUGGUCAAUCUGCGAAUUCUGCUGU [G4C G50C] was 0.621; that for GGGCGCCACAGCAAAAGCGUUCACGUCGCGGCCCCUGUCAGAUUCUGGUGAAUCUGCGAAUUCUGCUGU [G4C G14A] was 0.223.

For the variant GGGCGCCACAGCAUAAGCGUUCACGUCGCGGCCCCUGUCAGAUUCUGGUGAAUCUGCGAAUUCUGCUGU [G4C G14U], the self-cleavage was 0.149. The value for GGGCGCCACAGCACAAGCGUUCACGUCGCGGCCCCUGUCAGAUUCUGGUGAAUCUGCGAAUUCUGCUGU [G4C G14C] was 0.101; that for GGGCGCCACAGCAGAAGCGUUCACGUCGCGGCCCCUGUCAGAUUCUGCUGAAUCUGCGAAUUCUGCUGU [G4C G48C] was 0.675; that for GGGCGCCACAGCAGAAGCGUUCACGUCGCGGCCCCUGUCAGAUUCUGUUGAAUCUGCGAAUUCUGCUGU [G4C G48U] was 0.755. Then GGGCGCCACAGCAGAAGCGUUCACGUCGCGGCCCCUGUCAGAUUCUGGUGAAUCUGCUAAUUCUGCUGU [G4C G58U], with 0.71; and GGGCGCCACAGCAGAAGCGUUCACGUCGCGGCCCCUGUCAGAUUCUGGUGAAUCUGCCAAUUCUGCUGU [G4C G58C], with 0.226. The value for GGGCGCCACAGCAGAAGCGUUCACGUCGCGGCCCCUGUCAGAUUCUGGUGAAUCUGCAAAUUCUGCUGU [G4C G58A] was 0.278; that for GGGCGCCACAGCAGAACCGUUCACGUCGCGGCCCCUGUCAGAUUCUGGUGAAUCUGCGAAUUCUGCUGU [G4C G17C] was 0.0898. For the variant GGGCGCCACAGCAGAAGCGUUCACGUCGCGGCCCCUGUCAGAUUCUGGUGAAUCUCCGAAUUCUGCUGU [G4C G56C], the self-cleavage came to 0.246. As to GGGCGCCACAGCAGAAGCGUUCACGUCGCGGCCCCUGUCAGAUUCUGGUGAAUCUACGAAUUCUGCUGU [G4C G56A], the self-cleavage was found to be 0.289. Then GGGCGCCACAGCAGAAGCGUUCACGUCGCGGCCCCUGUCAGAUUCUAGUGAAUCUGCGAAUUCUGCUGU [G4C G47A], with 0.674. Consider GGGCGCCACAGCAGAAGCGUUCACGUCGCGGCCCCUGUCAGAUUCUUGUGAAUCUGCGAAUUCUGCUGU [G4C G47U], for which the self-cleavage turned out to be 0.638. Consider GGGCGCCACAGCAGAAGCGUUCACGUCGCGGCCCCUCUCAGAUUCUGGUGAAUCUGCGAAUUCUGCUGU [G4C G37C], for which the self-cleavage was 0.068. The value for GGGCGCCACAGCAGAAGCGUUCACGUCGCGGCCCCUAUCAGAUUCUGGUGAAUCUGCGAAUUCUGCUGU [G4C G37A] was 0.124; that for GGGCGCCACAGCAGAAGCGUUCACGUCGCGGCCCCUUUCAGAUUCUGGUGAAUCUGCGAAUUCUGCUGU [G4C G37U] was 0.0878. The value for GGGCGCCACAGCAGAAGCGUUCACGUCGCUGCCCCUGUCAGAUUCUGGUGAAUCUGCGAAUUCUGCUGU [G4C G30U] was 0.0789; that for GGGCGCCACAGCAGAAGCGUUCACGUCGCAGCCCCUGUCAGAUUCUGGUGAAUCUGCGAAUUCUGCUGU [G4C G30A] was 0.0414.

For the variant GGGCGCCACAGCAGAAGCGUUCACGUCGCGGCCCCUGUCAGAUUCUGGUGAAUCUGCGAAUUCUGCUUU [G4C G68U], the self-cleavage came out at 0.98. On to GGGCGCCACAGCAGAAGCGAUCACGUCGCGGCCCCUGUCAGAUUCUGGUGAAUCUGCGAAUUCUGCUGU [G4C U20A], for which the self-cleavage turned out to be 0.0691. For the variant GGGCUCCACAGCAGAAGCGUUCACGUCGCGGCCCCUGUCAGAUUCUGGUGAAUCUGCGAAUUCUGCUGU [G4C G5U], the self-cleavage worked out at 0.0341.

GGGCGCCACAGCAGAAGCGUUCACGUCGCGCCCCCUGUCAGAUUCUGGUGAAUCUGCGAAUUCUGCUGU [G4C G31C]: the self-cleavage was determined as 0.105. Then GGGCGCCACAGCAGAAGCAUUCACGUCGCGGCCCCUGUCAGAUUCUGGUGAAUCUGCGAAUUCUGCUGU [G4C G19A], with 0.0646; and GGGCGCCACACCAGAAGCGUUCACGUCGCGGCCCCUGUCAGAUUCUGGUGAAUCUGCGAAUUCUGCUGU [G4C G11C], with 0.273; and GGGCGCCACAUCAGAAGCGUUCACGUCGCGGCCCCUGUCAGAUUCUGGUGAAUCUGCGAAUUCUGCUGU [G4C G11U], with 0.262.

Take GGGCGCCACAACAGAAGCGUUCACGUCGCGGCCCCUGUCAGAUUCUGGUGAAUCUGCGAAUUCUGCUGU [G4C G11A]: the self-cleavage came to 0.375. Then GGGCGCCACAGCAGAAGCGUUCACGUCACGGCCCCUGUCAGAUUCUGGUGAAUCUGCGAAUUCUGCUGU [G4C G28A], with 0.0907.

For the variant GGGCGCCACAGCAGAAGCGUUCACGUCUCGGCCCCUGUCAGAUUCUGGUGAAUCUGCGAAUUCUGCUGU [G4C G28U], the self-cleavage was 0.109. GGGCGCCACAGCAGAAGCGUUCACGUCCCGGCCCCUGUCAGAUUCUGGUGAAUCUGCGAAUUCUGCUGU [G4C G28C]: the self-cleavage was determined as 0.0443.

Take GGGCGCCACAGCAGAAGCGUUCACGUCGCGGCCCCUGUCAAAUUCUGGUGAAUCUGCGAAUUCUGCUGU [G4C G41A]: the self-cleavage is 0.0714. For the variant GGGCGCCACAGCAGAAGCGUUCACGUCGCGGCCCCUGUCACAUUCUGGUGAAUCUGCGAAUUCUGCUGU [G4C G41C], the self-cleavage was 0.146. Take GGGCGCCACAGCAGAAGCGUUCACGUCGCGGCCCCUGUCAGAUUCUGGUGAAUCUGCGAAUUCUCCUGU [G4C G65C]: the self-cleavage amounted to 0.242. Turning to GGGCGCCACAGCAGAAGCGUUCACGUCGCGGCCCCUGUCAGAUUCUGGUGAAUCUGCGAAUUCUACUGU [G4C G65A], the self-cleavage stood at 0.412. The value for GGGCGCCACAGCAGAAGCGUUCACGUCGCGGCCCCUGUCAGAUUCUGGUGAAUCUGCGAAUUCUUCUGU [G4C G65U] was 0.294.
